Results taken from patent US20230227545A1 (published 2023).

Legend:
[1] = target: T1, human IL-1β (human, UniProt P01584 117-269); test: cell-based or functional assay
[2] = target: T2, cynomolgus IL-1β (cynomolgus macaque, UniProt P79182 117-268); test: cell-based or functional assay
T2 sequence (looked up): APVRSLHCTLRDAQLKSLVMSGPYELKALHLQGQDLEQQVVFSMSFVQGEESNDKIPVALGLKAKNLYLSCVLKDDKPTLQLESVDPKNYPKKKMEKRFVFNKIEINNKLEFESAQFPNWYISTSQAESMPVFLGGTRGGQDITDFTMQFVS

[3] = target: T3, pig IL-1β (pig, UniProt P26889 115-267); test: SPR, Biacore 8K, mAb captured on anti-human Fc chip, soluble IL-1β as analyte
T3 construct: also called pig IL-β
T3 sequence (looked up): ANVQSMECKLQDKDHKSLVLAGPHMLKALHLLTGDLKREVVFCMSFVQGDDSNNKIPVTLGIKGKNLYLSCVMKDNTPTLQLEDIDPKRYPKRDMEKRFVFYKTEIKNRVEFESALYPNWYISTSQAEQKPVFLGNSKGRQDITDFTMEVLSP
Procedure: (§1) Affinity assessment of 05H21A, 15N14A, and 08F17A against human IL-1β was performed by Surface Plasmon Resonance (SPR) using a Biacore 8k. Cross-reactivity of the same antibody panel was also assessed against cyno, mouse, rat and pig IL-1β.
(§2) SPR is a label-free technique to study the strength of an interaction between two binding partners by measuring the change in mass upon complex formation and dissociation. Briefly, antibodies were immobilized on a sensor chip which was coupled with goat anti-human Fc (GAH-Fc C1 sensor chip). Soluble IL-1β was flowed over the immobilized antibody and association/dissociation responses were monitored. Kinetic information (on-rate and off-rate constants) were extracted by fitting sensorgrams to the 1:1 Langmuir model. Binding affinity (KD) were reported as the ratio of rate constants (koff/kₒₙ).

[4] = target: T4, mouse IL-1β (mouse, UniProt P10749 118-269); test: as above
T4 construct: also called mouse IL-β
T4 sequence (looked up): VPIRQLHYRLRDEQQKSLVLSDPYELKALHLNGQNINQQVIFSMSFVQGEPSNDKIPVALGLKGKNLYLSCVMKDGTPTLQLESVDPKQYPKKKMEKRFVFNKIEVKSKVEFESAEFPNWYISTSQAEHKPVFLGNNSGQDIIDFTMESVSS
Procedure: as §1, §2

[5] = target: T5, rat IL-1β (rat, UniProt Q63264 117-268); test: as above
T5 construct: also called rat IL-β
T5 sequence (looked up): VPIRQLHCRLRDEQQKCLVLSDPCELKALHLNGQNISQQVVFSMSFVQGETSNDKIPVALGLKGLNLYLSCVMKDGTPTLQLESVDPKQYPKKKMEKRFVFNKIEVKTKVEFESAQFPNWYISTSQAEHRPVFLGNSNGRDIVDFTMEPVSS
Procedure: as §1, §2

[6] = target: T2, cynomolgus IL-1β; test: SPR, Biacore 8K, mAb captured on goat anti-human Fc C1 chip, soluble IL-1β as analyte, 1:1 Langmuir fit
Procedure: as §1, §2

[7] = target: T1, human IL-1β; test: as above
Procedure: as §1, §2

[8] = target: T1, human IL-1β; test: cell-based or functional assay; remark: listed apart in the source
[9] = target: T1, human IL-1β; test: cell-based or functional assay; remark: listed apart in the source

IC30, inhibition of IL-6 release, human PBMCs (n=5 donors), 10 pM rhIL-1β [1]: 52 pM
IC30, inhibition of IL-6 release, human PBMCs (n=5 donors), 30 pM rhIL-1β [1]: 0.156 nM
IC50, inhibition of IL-6 release, human PBMCs (n=5 donors), 10 pM rhIL-1β [1]: 92 pM
IC50, inhibition of IL-6 release, human PBMCs (n=5 donors), 30 pM rhIL-1β [1]: 0.241 nM
IC90, inhibition of IL-6 release, human PBMCs (n=5 donors), 10 pM rhIL-1β [1]: 0.402 nM
IC90, inhibition of IL-6 release, human PBMCs (n=5 donors), 30 pM rhIL-1β [1]: 0.744 nM
IC30, inhibition of G-CSF release, cynomolgus lung fibroblasts (CLF), 15 pM rcynoIL-1β [2]: 3.58 nM
IC30, inhibition of IL-6 release, cynomolgus dermal fibroblasts (CDF), 5 pM rcynoIL-1β [2]: 2.72 nM
IC30, inhibition of IL-6 release, cynomolgus lung fibroblasts (CLF), 15 pM rcynoIL-1β [2]: 3.44 nM
IC50, inhibition of G-CSF release, cynomolgus dermal fibroblasts (CDF), 5 pM rcynoIL-1β [2]: 3.24 nM
IC50, inhibition of G-CSF release, cynomolgus lung fibroblasts (CLF), 15 pM rcynoIL-1β [2]: 6.11 nM
IC50, inhibition of IL-6 release, cynomolgus dermal fibroblasts (CDF), 5 pM rcynoIL-1β [2]: 5.1 nM
IC50, inhibition of IL-6 release, cynomolgus lung fibroblasts (CLF), 15 pM rcynoIL-1β [2]: 6.97 nM
IC90, inhibition of G-CSF release, cynomolgus lung fibroblasts (CLF), 15 pM rcynoIL-1β [2]: 24.3 nM
IC90, inhibition of IL-6 release, cynomolgus dermal fibroblasts (CDF), 5 pM rcynoIL-1β [2]: 25.9 nM
IC90, inhibition of IL-6 release, cynomolgus lung fibroblasts (CLF), 15 pM rcynoIL-1β [2]: 43.6 nM
binding result [3]: no binding
binding result [4]: no binding
binding result [5]: no binding
Kd [6]: 1.71 nM
koff [6]: 0.000295 s⁻¹
kon [6]: 172000 M⁻¹ s⁻¹
Kd [7]: 0.18 nM
IC30, inhibition of rhIL-1β-induced cytokine release, NHDF donor 29114 [8]: 0.087 nM
IC30, inhibition of rhIL-1β-induced cytokine release, NHLF donor 34325 [8]: 0.127 nM
IC30, inhibition of rhIL-1β-induced cytokine release, NHLF donor 35234 [8]: 0.09 nM
IC50, inhibition of rhIL-1β-induced cytokine release, NHDF donor 29114 [8]: 0.174 nM
IC50, inhibition of rhIL-1β-induced cytokine release, NHLF donor 34325 [8]: 0.293 nM
IC50, inhibition of rhIL-1β-induced cytokine release, NHLF donor 35234 [8]: 0.207 nM
IC90, inhibition of rhIL-1β-induced cytokine release, NHDF donor 29114 [8]: 1.07 nM
IC90, inhibition of rhIL-1β-induced cytokine release, NHLF donor 34325 [8]: 2.55 nM
IC90, inhibition of rhIL-1β-induced cytokine release, NHLF donor 35234 [8]: 1.8 nM
IC30, inhibition of rhIL-1β-induced CXCL5 release, human whole blood (5 donors) [9]: 1.33 nM
IC30, inhibition of rhIL-1β-induced G-CSF release, human whole blood (5 donors) [9]: 0.704 nM
IC30, inhibition of rhIL-1β-induced IL-6 release, human whole blood (5 donors) [9]: 0.872 nM
IC50, inhibition of rhIL-1β-induced CXCL5 release, human whole blood (5 donors) [9]: 2.86 nM
IC50, inhibition of rhIL-1β-induced G-CSF release, human whole blood (5 donors) [9]: 1.31 nM
IC50, inhibition of rhIL-1β-induced IL-6 release, human whole blood (5 donors) [9]: 1.53 nM
IC90, inhibition of rhIL-1β-induced CXCL5 release, human whole blood (5 donors) [9]: 20.8 nM
IC90, inhibition of rhIL-1β-induced G-CSF release, human whole blood (5 donors) [9]: 6.58 nM
IC90, inhibition of rhIL-1β-induced IL-6 release, human whole blood (5 donors) [9]: 6.56 nM
B1: 08F17A (antibody, human IgG1, kappa, V domains shown)
VH: EVQLVESGGGLVTPGGSLRLSCAASGFTFSGYSMNWVRQAPGKGLEWVSSISSSSGYIYYADSVKGRFTISRDNAKNSLYLQMNSLRAEDTAVYYCAREYWGSGFDYWGQGTLVTVSS
VL: DIQMTQSPSSLSASVGDRVTITCRASQGISYYLAWYQQKPGKVPKLLISAEFTLQSGVPSRFSGSGSGTDFTLTISSLQPEDVATYYCQKYNTAPRTFGQGTKVEIKR
notes: Kappa light chain; also called 08F17A (anti-IL-1β) mAb [IgG1: YTE]
